{"source": "patent US20220332789A1", "about": "(COMBIKINE BIOTECHNOLOGY, published 2022)", "binders": {"B1": {"name": "hCD23-G4S3-mIgG2a Fc (Fc fusion)", "chain": "EASDLLERLREEVTKLRMELQVSSGFVCNTCPEKWINFQRKCYYFGKGTKQWVHARYACDDMEGQLVSIHSPEEQDFLTKHASHTGSWIGLRNLDLKGEFIWVDGSHVDYSNWAPGEPTSRSQGEDCVMMRGSGRWNDAFCDRKLGAWVCDRLATCTPPASEGSAESMGPDSRPDPDGRLPTPSAPLHSGGGGSGGGGSGGGGSASISAMVRSPRGPTIKPCPPCKCPAPNLEGGPSVFIFPPKIKDVLMISLSPIVTCVVVDVSEDDPDVQISWFVNNVEVHTAQTQTHREDYNSTLRVVSALPIQHQDWMSGKAFACAVNNKDLPAPIERTISKPKGSVRAPQVYVLPPPEEEMTKKQVTLTCMVTDFMPEDIYVEWTNNGKTELNYKNTEPVLDSDGSYFMYSKLRVEKKNWVERNSYSCSVVHEGLHNHHTTKSFSRTPGK", "modifications": "here or on the partner: In the flow-cytometry assays the IgE carried AlexaFluor-488 dye at unspecified positions. The letters do not show this."}, "B2": {"name": "anti-IgE^0 (Fc fusion)", "chain": "EASDLLERLREEVTKLRMELQVSSGFVCNTCPEKWINFQRKCYYFGKGTKQWVHARYACDDMEGQLVSIHSPEEQDFLTKHASHTGSWIGLRNLDLKGEFIWVDGSHVDYSNWAPGEPTSRSQGEDCVMMRGSGRWNDAFCDRKLGAWVCDRLATCTPPASEGSAESMGPDSRPDPDGRLPTPSAPLHSASISAMVRSPRGPTIKPCPPCKCPAPNLEGGPSVFIFPPKIKDVLMISLSPIVTCVVVDVSEDDPDVQISWFVNNVEVHTAQTQTHREDYNSTLRVVSALPIQHQDWMSGKAFACAVNNKDLPAPIERTISKPKGSVRAPQVYVLPPPEEEMTKKQVTLTCMVTDFMPEDIYVEWTNNGKTELNYKNTEPVLDSDGSYFMYSKLRVEKKNWVERNSYSCSVVHEGLHNHHTTKSFSRTPGK", "modifications": "here or on the partner: In the flow-cytometry assays the IgE carried AlexaFluor-488 dye at unspecified positions. The letters do not show this."}, "B3": {"name": "anti-IgE^4 (Fc fusion)", "chain": "EASDLLERLREEVTKLRMELQVSSGFVCNTCPEKWINFQRKCYYFGKGTKQWVHARYACDDMEGQLVSIHSPEEQDFLTKHASHTGSWIGLRNLDLKGEFIWVDGSHVDYSNWAPGEPTSRSQGEDCVMMRGSGRWNDAFCDRKLGAWVCDRLATCTPPASEGSAESMGPDSRPDPDGRLPTPSAPLHSGGGGSGGGGSGGGGSGGGGSASISAMVRSPRGPTIKPCPPCKCPAPNLEGGPSVFIFPPKIKDVLMISLSPIVTCVVVDVSEDDPDVQISWFVNNVEVHTAQTQTHREDYNSTLRVVSALPIQHQDWMSGKAFACAVNNKDLPAPIERTISKPKGSVRAPQVYVLPPPEEEMTKKQVTLTCMVTDFMPEDIYVEWTNNGKTELNYKNTEPVLDSDGSYFMYSKLRVEKKNWVERNSYSCSVVHEGLHNHHTTKSFSRTPGK", "modifications": "here or on the partner: In the flow-cytometry assays the IgE carried AlexaFluor-488 dye at unspecified positions. The letters do not show this."}, "B4": {"name": "anti-IgE^0 (Fc fusion)", "chain": "B2 chain", "notes": "also called biologic anti-IgE^0"}, "B5": {"name": "hCD23-G4S3-mIgG2a Fc (Fc fusion)", "chain": "B1 chain", "notes": "It has two CD23 monomers, paired through the IgG Fc; also called anti-IgE^3; IgE^3"}, "B6": {"name": "anti-IgE^4 (Fc fusion)", "chain": "B3 chain", "notes": "also called biologic anti-IgE^4"}, "B7": {"name": "derCD23 (receptor)", "chain": "SGFVCNTCPEKWINFQRKCYYFGKGTKQWVHARYACDDMEGQLVSIHSPEEQDFLTKHASHTGSWIGLRNLDLKGEFIWVDGSHVDYSNWAPGEPTSRSQGEDCVMMRGSGRWNDAFCDRKLGAWVCDRLATCTPPASEGSAE", "notes": "also called derCD23 monomer; CD23 monomer"}}, "key": {"[1]": {"molecular_target": "IgE (NIP IgE, AbD Serotec) (Homo sapiens (Human)), P01854", "sequence (P01854 other isoform, or with tags, fused parts or gaps limits assumed)": "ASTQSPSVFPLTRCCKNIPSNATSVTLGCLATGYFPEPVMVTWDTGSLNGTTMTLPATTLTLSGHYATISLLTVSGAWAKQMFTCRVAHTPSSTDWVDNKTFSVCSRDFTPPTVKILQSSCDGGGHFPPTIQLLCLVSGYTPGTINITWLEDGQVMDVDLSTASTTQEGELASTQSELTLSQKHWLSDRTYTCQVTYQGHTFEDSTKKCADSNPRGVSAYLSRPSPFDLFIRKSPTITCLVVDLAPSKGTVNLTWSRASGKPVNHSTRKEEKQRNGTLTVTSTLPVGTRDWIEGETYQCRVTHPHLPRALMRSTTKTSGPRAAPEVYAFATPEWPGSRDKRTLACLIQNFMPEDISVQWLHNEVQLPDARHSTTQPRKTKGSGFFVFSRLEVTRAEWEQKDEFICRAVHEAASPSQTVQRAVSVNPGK", "experiment": "cell-based or functional assay"}, "IgE-Fc [2]": {"molecular_target": "T1, IgE-Fc (UniProt P01854-1 104-428, limits assumed)", "T1 construct": "domain: IgE-Fc; In SPR it was captured on the chip by the α-Cε4 Fab; also called α-Cε4 Fab captured IgE-Fc; IgE-Fc-A488", "T1 sequence (P01854 other isoform, or with tags, fused parts or gaps limits assumed)": "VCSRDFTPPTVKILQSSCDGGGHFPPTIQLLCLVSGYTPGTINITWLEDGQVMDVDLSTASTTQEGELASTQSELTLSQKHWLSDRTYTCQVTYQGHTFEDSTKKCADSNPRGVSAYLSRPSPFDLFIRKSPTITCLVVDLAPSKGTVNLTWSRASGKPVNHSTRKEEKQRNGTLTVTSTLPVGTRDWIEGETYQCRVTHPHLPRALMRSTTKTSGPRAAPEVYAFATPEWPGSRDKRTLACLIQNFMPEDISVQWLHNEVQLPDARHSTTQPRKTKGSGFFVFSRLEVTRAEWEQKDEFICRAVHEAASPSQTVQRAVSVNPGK", "experiment": "flow cytometry competition: 1 nM IgE-Fc-A488 binding to FcεRI on RBL SX-38 cells"}, "IgE-Fc [3]": {"molecular_target": "T1, IgE-Fc", "experiment": "SPR (Biacore), steady state analysis, one-to-one binding model, derCD23 0-4 µM over α-Cε4 Fab captured IgE-Fc", "procedure": "(§1) An α-Cε4 Fab CM5 sensor surface was prepared using amine-coupling and a mock amine-coupled surface was used as a reference-subtraction control. […] Injections were performed at a flow rate of 25 μl·min⁻¹ in a running buffer of 10 mM HEPES, pH 7.4, 150 mM NaCl, 4 mM CaCl₂, and 0.005% (v/v) surfactant P-20 (GE Healthcare)."}, "IgE-Fc [4]": {"molecular_target": "T1, IgE-Fc", "experiment": "SPR (Biacore T200), monophasic kinetic fitting, derCD23 4000 nM to 31 nM over α-Cε4 Fab captured IgE-Fc, pH 7.4, 4 mM CaCl2", "procedure": "as §1"}}}
{"binder": "B1", "values": [{"measurement": "Extracellular supernatant (IgE remaining prior to buffer change), 1 nM IgE with 0.01 nM biologic, percentage of IgE", "setting": "[1]", "value": 7, "unit": "%"}, {"measurement": "Extracellular supernatant (IgE remaining prior to buffer change), 1 nM IgE with 0.05 nM biologic, percentage of IgE", "setting": "[1]", "value": 4.5, "unit": "%"}, {"measurement": "Extracellular supernatant (IgE remaining prior to buffer change), 1 nM IgE with 0.5 nM biologic, percentage of IgE", "setting": "[1]", "value": 1, "unit": "%"}, {"measurement": "Extracellular supernatant (IgE remaining), 1 nM IgE with 0.01 nM biologic, percentage of IgE", "setting": "[1]", "value": 8, "unit": "%"}, {"measurement": "Extracellular supernatant (IgE remaining), 1 nM IgE with 0.05 nM biologic, percentage of IgE", "setting": "[1]", "value": 5, "unit": "%"}, {"measurement": "Extracellular supernatant (IgE remaining), 1 nM IgE with 0.5 nM biologic, percentage of IgE", "setting": "[1]", "value": 1, "unit": "%"}, {"measurement": "IC50 of inhibition of IgE mediated degranulation", "setting": "[1]", "value": "10 to 30", "unit": "nM"}, {"measurement": "IgE Intracellular retention, 1 nM IgE with 0.01 nM biologic, percentage of IgE", "setting": "[1]", "value": 92, "unit": "%"}, {"measurement": "IgE Intracellular retention, 1 nM IgE with 0.05 nM biologic, percentage of IgE", "setting": "[1]", "value": 94, "unit": "%"}, {"measurement": "IgE Intracellular retention, 1 nM IgE with 0.5 nM biologic, percentage of IgE", "setting": "[1]", "value": 98, "unit": "%"}, {"measurement": "IgE Intracellular retention, 1 nM IgE with 1 nM biologic, percentage of IgE", "setting": "[1]", "value": 95, "unit": "%"}, {"measurement": "IgE Intracellular retention, 1 nM IgE with 5 nM biologic, percentage of IgE", "setting": "[1]", "value": 93, "unit": "%"}, {"measurement": "IgE Intracellular retention, 1 nM IgE with 50 nM biologic, percentage of IgE", "setting": "[1]", "value": 90, "unit": "%"}, {"measurement": "IgE Intracellular retention, 1 nM IgE with 500 nM biologic, percentage of IgE", "setting": "[1]", "value": 79, "unit": "%"}, {"measurement": "IgE Intracellular retention, 1 nM IgE with 1000 nM biologic, percentage of IgE", "setting": "[1]", "value": 65, "unit": "%"}, {"measurement": "IgE Intracellular retention, 1 nM IgE with 2000 nM biologic, percentage of IgE", "setting": "[1]", "value": 52, "unit": "%"}, {"measurement": "IgE Uptake, 1 nM IgE with 0.01 nM biologic, percentage of IgE", "setting": "[1]", "value": 92, "unit": "%"}, {"measurement": "IgE Uptake, 1 nM IgE with 0.05 nM biologic, percentage of IgE", "setting": "[1]", "value": 95, "unit": "%"}, {"measurement": "IgE Uptake, 1 nM IgE with 0.5 nM biologic, percentage of IgE", "setting": "[1]", "value": 99, "unit": "%"}, {"measurement": "IgE Uptake, 1 nM IgE with 1 nM biologic, percentage of IgE", "setting": "[1]", "value": 100, "unit": "%"}, {"measurement": "IgE Uptake, 1 nM IgE with 5 nM biologic, percentage of IgE", "setting": "[1]", "value": 100, "unit": "%"}, {"measurement": "IgE Uptake, 1 nM IgE with 50 nM biologic, percentage of IgE", "setting": "[1]", "value": 100, "unit": "%"}, {"measurement": "IgE Uptake, 1 nM IgE with 500 nM biologic, percentage of IgE", "setting": "[1]", "value": 100, "unit": "%"}, {"measurement": "IgE Uptake, 1 nM IgE with 1000 nM biologic, percentage of IgE", "setting": "[1]", "value": 100, "unit": "%"}, {"measurement": "IgE Uptake, 1 nM IgE with 2000 nM biologic, percentage of IgE", "setting": "[1]", "value": 100, "unit": "%"}, {"measurement": "efficacy of inhibition of IgE mediated degranulation of basophils", "setting": "[1]", "value": 90, "unit": "%"}]}
{"binder": "B2", "values": [{"measurement": "IC50 of inhibition of IgE mediated degranulation", "setting": "[1]", "value": "> 300", "unit": "nM"}, {"measurement": "maximal efficacy of inhibition of IgE mediated degranulation of basophils", "setting": "[1]", "value": 50, "unit": "%"}]}
{"binder": "B3", "values": [{"measurement": "IC50 of inhibition of IgE mediated degranulation", "setting": "[1]", "value": "10 to 30", "unit": "nM"}, {"measurement": "efficacy of inhibition of IgE mediated degranulation of basophils", "setting": "[1]", "value": 100, "unit": "%"}]}
{"binder": "B4", "values": [{"measurement": "IC50 (read off the curve)", "setting": "IgE-Fc [2]", "value": "~30", "unit": "nM"}]}
{"binder": "B5", "values": [{"measurement": "IC50 (read off the curve)", "setting": "IgE-Fc [2]", "value": "~10", "unit": "nM"}]}
{"binder": "B6", "values": [{"measurement": "IC50 (read off the curve)", "setting": "IgE-Fc [2]", "value": "~7", "unit": "nM"}]}
{"binder": "B7", "values": [{"measurement": "Kd", "setting": "IgE-Fc [3]", "value": 1820, "unit": "nM"}, {"measurement": "Kd", "setting": "IgE-Fc [4]", "value": 1800, "unit": "nM"}]}
